The source of these data is paper PMC7040040.

Test [1] addresses humanized PBD-C06 with A97 of the VH framework substituted by murine T97 (human). Kind of test: SPR; Biacore 3000; antibody captured on a CM5 chip via immobilised anti-mouse or anti-human antibody; monomeric Aβ peptides injected (240 µl, 30 µl/min), running buffer HBS-EP; 1:1 Langmuir binding model. (Surface plasmon resonance follows binding to a sensor surface in real time, without labels.)

Test [2] has as its target humanized PBD-C06 (CDR-grafted IgG1:kappa version) (human). The description is as above.

Sequence of humanized PBD-C06 (CDR-grafted IgG1:kappa version) (human) (heavy, as listed by the source, chain 1 of 2): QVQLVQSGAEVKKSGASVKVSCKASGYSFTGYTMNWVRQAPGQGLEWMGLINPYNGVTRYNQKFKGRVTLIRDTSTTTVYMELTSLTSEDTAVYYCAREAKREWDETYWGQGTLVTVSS
Sequence of humanized PBD-C06 (CDR-grafted IgG1:kappa version) (human) (light, as listed by the source, chain 2 of 2): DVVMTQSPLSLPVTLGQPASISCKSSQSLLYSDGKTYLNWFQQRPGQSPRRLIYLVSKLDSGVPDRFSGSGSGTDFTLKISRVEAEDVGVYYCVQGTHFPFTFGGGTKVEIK
Sequence of humanized PBD-C06 with A97 of the VH framework substituted by murine T97 (human) (heavy, as listed by the source, chain 1 of 2): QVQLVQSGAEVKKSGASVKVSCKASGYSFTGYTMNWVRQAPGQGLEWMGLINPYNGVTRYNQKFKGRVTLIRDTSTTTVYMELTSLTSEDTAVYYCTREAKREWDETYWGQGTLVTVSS
Sequence of humanized PBD-C06 with A97 of the VH framework substituted by murine T97 (human) (light, as listed by the source, chain 2 of 2): as the sequence (light, as listed by the source, chain 2 of 2) above

For pE3-Aβ(3–18) monomer (peptide), the Kd – broadly, the equilibrium constant for the complex coming apart – came out at 5.3 nM in test [1] and 43.5 nM in test [2].
